Test results from patent publication US20190307868A1.

Biological target: HLA-B08:01 (human)
Assay: peptide-MHC-I complex dissociation half-life, 125I-b2m, 37 C
Conditions: remark: other sources report otherwise

Stability (T1/2 (h)) [h]	Binder
1.3	WLHKRGKYI [… (AKT1, E17K)]
0	SVCFFFFSV [… (CNOT1(+1))]
0	FLPSTLKSL [… (ESR1, S463P)]
0	QLIMQLMPF [… (EGFR, T790M)]
0	SLPRFILMEL [… (ALK, L1196M)]

Biological target: HLA-B08:01 (human)
Assay: competitive inhibition of 125I-labeled probe peptide binding to purified HLA class I
Conditions: remark: other sources report otherwise

IC50 [nM]	Binder
417	WLHKRGKYI [… (AKT1, E17K)]
1970	FLPSTLKSL [… (ESR1, S463P)]

Biological target: HLA-A02:01 (human)
Assay: competition with 125I-labelled probe peptide, purified HLA
Conditions: remark: other sources report otherwise

IC50 [nM]	Binder
1190	LVVVGADGV
1210	LVVVGACGV

Biological target: HLA-A02:01 (human)
Assay: pMHC-I dissociation half-life, 125I-b2m
Conditions: remark: other sources report otherwise

Stability (T1/2 (h)) [h]	Binder
0.6	LVVVGAVGV
0	LVVVGADGV
0.6	LVVVGACGV
